Measurements published in patent publication US20220195068A1 (TENEOBIO, published 2022).

Key:
[1] = molecular target: T1, human PSMA (Prostate Specific Membrane Antigen, Glutamate Carboxypeptidase II) on cells (human, UniProt Q04609 1-750); test: cell-based or functional assay
[2] = molecular target: T1, human PSMA (Prostate Specific Membrane …); test: flow cytometry cell binding, PC3-PSMA cells
[3] = molecular target: T1, human PSMA (Prostate Specific Membrane …); test: flow cytometry cell binding, LNCAP cells
[4] = molecular target: T1, human PSMA (Prostate Specific Membrane …); test: flow cytometry cell binding, MDA-PCa-2b cells
[5] = molecular target: T1, human PSMA (Prostate Specific Membrane …); test: flow cytometry cell binding, 22Rv1 cells

T1 sequence (Q04609 whole entry): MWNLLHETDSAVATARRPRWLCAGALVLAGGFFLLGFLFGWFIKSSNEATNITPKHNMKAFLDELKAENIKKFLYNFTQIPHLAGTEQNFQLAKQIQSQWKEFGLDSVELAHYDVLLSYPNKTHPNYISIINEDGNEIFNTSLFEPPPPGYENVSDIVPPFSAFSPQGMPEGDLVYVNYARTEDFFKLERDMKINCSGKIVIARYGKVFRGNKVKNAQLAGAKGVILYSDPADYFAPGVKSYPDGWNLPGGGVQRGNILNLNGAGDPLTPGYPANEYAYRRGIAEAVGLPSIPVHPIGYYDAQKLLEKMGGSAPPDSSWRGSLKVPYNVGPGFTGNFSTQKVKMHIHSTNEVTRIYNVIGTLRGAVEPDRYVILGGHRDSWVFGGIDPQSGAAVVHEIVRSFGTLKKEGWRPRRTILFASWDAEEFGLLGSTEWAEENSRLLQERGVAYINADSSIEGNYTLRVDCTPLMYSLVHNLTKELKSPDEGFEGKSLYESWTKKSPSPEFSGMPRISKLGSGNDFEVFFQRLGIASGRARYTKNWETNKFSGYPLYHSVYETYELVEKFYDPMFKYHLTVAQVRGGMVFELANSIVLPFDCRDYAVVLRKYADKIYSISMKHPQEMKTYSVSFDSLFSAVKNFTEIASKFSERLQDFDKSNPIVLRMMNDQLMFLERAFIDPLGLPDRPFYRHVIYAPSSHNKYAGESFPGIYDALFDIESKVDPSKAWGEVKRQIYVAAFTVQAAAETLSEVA

B1: 350123xCD3 biparatopic PSMAxCD3 multi-specific antibody (bispecific antibody, human IgG4 S228P, kappa, F234A L235A)
heavy 1: QLQLQESGPGLVKPSETLSLTCTVSGGSISSSNYFWGWIRQSPGKGLEWIGSIDYSGYTYYNPSLKSRVTISVDTSKNQFSLKLSSVTAADTAVYNCARHKAATADFDYRGQGTLVTVSSGGGGSGGGGSQVQLVESGGGVVQPGRSLRLSCAASGFSFSRYGMHWVRQAPGKGLEGVAVIWYDGSNRYYADSVKGRFTISRDNSKNTLYLQMNSLRAEDTAVYYCAREPRIGYYYESSGYYSLDYRGQGTLVTVSSESKYGPPCPPCPAPEAAGGPSVFLFPPKPKDTLMISRTPEVTCVVVDVSQEDPEVQFNWYVDGVEVHNAKTKPREEQFNSTYRVVSVLTVLHQDWLNGKEYKCKVSNKGLPSSIEKTISKAKGQPREPQVYTLPPSQEEMTKNQVSLSCAVKGFYPSDIAVEWESNGQPENNYKTTPPVLDSDGSFFLVSRLTVDKSRWQEGNVFSCSVMHEALHNHYTQKSLSLSLGK
heavy 2: EVQLVESGGGLVQPGRSLRLSCAASGFTFDDYAMHWVRQAPGKGLEWVSGISWNSGSIGYADSVKGRFTISRDNAKNSLYLQMNSLRAEDTALYYCAKDSRGYGDYRLGGAYWGQGTLVTVSSASTKGPSVFPLAPCSRSTSESTAALGCLVKDYFPEPVTVSWNSGALTSGVHTFPAVLQSSGLYSLSSVVTVPSSSLGTKTYTCNVDHKPSNTKVDKRVESKYGPPCPPCPAPEAAGGPSVFLFPPKPKDTLMISRTPEVTCVVVDVSQEDPEVQFNWYVDGVEVHNAKTKPREEQFNSTYRVVSVLTVLHQDWLNGKEYKCKVSNKGLPSSIEKTISKAKGQPREPQVYTLPPSQEEMTKNQVSLWCLVKGFYPSDIAVEWESNGQPENNYKTTPPVLDSDGSFFLYSRLTVDKSRWQEGNVFSCSVMHEALHNHYTQKSLSLSLGK
light: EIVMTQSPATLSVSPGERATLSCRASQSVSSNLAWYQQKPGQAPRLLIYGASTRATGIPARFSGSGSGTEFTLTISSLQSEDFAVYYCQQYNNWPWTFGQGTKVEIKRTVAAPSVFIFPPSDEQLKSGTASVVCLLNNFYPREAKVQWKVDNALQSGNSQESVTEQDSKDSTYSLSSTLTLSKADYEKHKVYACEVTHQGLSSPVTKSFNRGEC
notes: also called biparatopic molecule
IFNγ EC50, 22Rv1 cells [1]: 380 nM | IFNγ EC50, LNCAP cells [1]: 3.29 nM | IFNγ EC50, MDA-PCa-2b cells [1]: 0.9 nM | IFNγ EC50, PC3-PSMA cells [1]: 1.01 nM | IL-2 EC50, LNCAP cells [1]: 3.73 nM | IL-2 EC50, MDA-PCa-2b cells [1]: 1.11 nM | IL-2 EC50, PC3-PSMA cells [1]: 1.1 nM | Kill EC50, 22Rv1 cells, resting T-cells [1]: 0.42 nM | Kill EC50, LNCAP cells, resting T-cells [1]: 0.84 nM | Kill EC50, MDA-PCa-2b cells, resting T-cells [1]: 0.41 nM | Kill EC50, PC3-PSMA cells, resting T-cells [1]: 0.4 nM | EC50 [2]: 6 nM | EC50 [3]: 2 nM | EC50 [4]: 2 nM | EC50 [5]: 3 nM
